Test results published in patent publication US20210277140A1 (University of California, published 2021).
No end group written: not given here.

Tests used:
SNAP-Syk tSH2 [1] = molecular target: T1, SNAP-Syk tSH2 (mouse, UniProt P48025 1-262); assay: liposome-based fluorescence quenching assay: SNAP-505-labelled Syk tSH2 reporter, rhodamine-PE liposomes carrying His10-receptor tail (0 to 500 nM) phosphorylated by His10-Lck Y505F after ATP; Kd ± SE from a one-site specific binding fit
Experimental: (§1) Experiments were carried out as previously described (Alvey C M et al., Current Biology 27:2065-2077, 2017). Briefly, proteins were purified using a bacterial expression system. All protein components (1 mg/ml BSA, 100 nM tSH2-Syk SNAP-505, 0 to 500 nM His10-CD3ζ or His10-FcRγ intracellular chain, and 7.2 nM His10-Lck Y505F) were mixed into kinase buffer (50 mM HEPES-NaOH pH 6.8, 150 mM NaCl, 10 mM MgCl₂, and 1 mM TCEP). Liposomes prepared at the following molar ratios: 74.5% POPC (Avanti, Catalog #850457C), 10% DOGS-NTA (Nickel) (Avanti, Catalog #790404C, 0.5% Rhodamine PE (Avanti, Catalog #810150C), and 15% DOPS (Avanti, Catalog #840035C) were added and the mixture was incubated for 40-60 minutes at room temperature, during which the SNAP-505 fluorescence was monitored at 8 s intervals with 504 nm excitation and 540 nm emission. 1 mM ATP was then injected to trigger Lck mediated phosphorylation of CD3ζ or FcRγ. Injection was followed by 5 seconds of automatic shaking of the plate, and the fluorescence was further monitored at 8 s intervals for at least 1 hr. Data were normalized by setting the average fluorescence value of the last 10 data points before ATP addition as 100% and background fluorescence as 0%. […]

SNAP-Syk tSH2 [2] = molecular target: T1, SNAP-Syk tSH2; assay: liposome-based fluorescence quenching (FRET) assay; His10-FcRγ on NiNTA liposomes phosphorylated by Lck, 100 nM SNAP-505 Syk tSH2, receptor titrated 0-500 nM; apparent Kd, one site specific binding fit
Experimental: as §1

Kd (SNAP-Syk tSH2 [1]): 31.2 nM | Kd (SNAP-Syk tSH2 [2]): ~30 nM
B1: His10-FcRγ (other, human)
chain: HHHHHHHHHHRLKIQVRKAAITSYEKSDGVYTGLSTRNQETYETLKHEKPP
modifications: not fully specified
notes: range 45-85; titrated 0 to 500 nM; also called His10-FcRγ intracellular chain; His10-FcRγ-chain
